Measured values from the supplement of paper PMC12042874.
± gives the uncertainty stated by the source.

Test: amyloid nucleation score (Sup35N fusion, yeast selection) (log enrichment); library NNK1; higher = more nucleation; inactive = no reads after selection
Summary of the method: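 Nucleation score is defined as the DiMSum log enrichment of output over input reads, with centring on the mode score of non-aggregating sequences. A minimum of 100 input reads was required for each sequence. Reads came from Illumina sequencing of plasmid inserts from psi-negative yeast expressing Sup35N fused to peptides of 20 random codons, induced with 100 μM copper sulfate for 24 hours and grown 7 days at 30°C on medium lacking adenine and uracil.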

| Substance | amyloid nucleation score |
| --- | --- |
| AACGWHRLICNKFSQFTRGP | -0.021 ± 0.75 |
| AAFDRNSEGNAPMPVMCPCI | 0.34 ± 0.75 |
| AAKRSETAP | -0.308 ± 0.43 |
| AAVCRSILVF | 0.674 ± 0.88 |
| ACDRMGGVSGPDSAAVWPYI | -1.91 ± 2.7 |
| ACGRLFDYVAFHRLLDQTHW | -0.617 ± 0.65 |
| ACLGVTRGYSGPSTTKSFLR | -0.238 ± 0.46 |
| ACLISMMLVLCYI | 1.67 ± 0.53 |
| ACYGLIDQLFQLANPYRTAM | 0.412 ± 0.32 |
| ACYNGHTSRWLR | 1.09 ± 0.85 |
| ADAGGSQVWAYQAQIICPKW | -0.63 ± 1.3 |
| ADGWFQFWRGKYFGGRFQFT | -0.166 ± 0.61 |
| ADRKSFLQSCGLCE | -0.661 ± 0.32 |
| ADWTSSLNLGEYYMFKFSPE | 1.02 ± 0.38 |
| AECLDPMNAVTVCRGSWL | 0.101 ± 0.35 |
| AESLWQFTWQVTKPHEEGSE | 4.35 ± 0.068 |
| AFAVSSYWVRGIHRESYGSV | 0.591 ± 0.69 |
| AFGMIVLGRSTNGGYCTDGN | 2.83 ± 0.16 |
| AFLQLDS | 0.665 ± 0.36 |
| AFMSRVPFSHCIKSGGLQGT | 0.19 ± 0.49 |
| AFNGTSAGMCKWGACTEWCV | -0.382 ± 0.28 |
| AFNKAVMSDTQL | -0.7 ± 0.6 |

| Substance | amyloid nucleation score |
| --- | --- |
| AGCHGSDSHPFRQPSPLLLF | 0.462 ± 1.2 |
| AGFVSVVVF | 0.005 ± 0.38 |
| AGKCGIQWACEM | 0.194 ± 0.69 |
| AGLITSDDMAYWIGILFCNL | 2.57 ± 0.14 |
| AGQVYRFAVSVRSSKLIVAR | 0.966 ± 0.45 |
| AGSGMLSKLVLLSRKSMVIT | 1.92 ± 0.21 |
| AGVCYWTLDILPY | 0.789 ± 0.9 |
| AHCLECGMNVNGTIF | -0.81 ± 1.6 |
| AHSAYL | 0.43 ± 0.4 |
| AIRFDLVTFAAIEGIIYKGR | 0.136 ± 1 |
| AISAYELSRIRVQS | 0.487 ± 0.55 |
| AKGCNMWI | 2.3 ± 0.32 |
| AKGYTEMVKYHRVSTTMVFM | inactive |
| AKHVLGNHAIRNGSKL | 0.258 ± 0.3 |
| AKIWVWSWWY | 0.039 ± 0.47 |
| AKLWQY | -0.185 ± 1.1 |
| AKPMNKTEYFSAYLQLHMGI | 3.1 ± 0.12 |
| ALCFGR | inactive |
| ALHCQPVGH | -0.006 ± 0.32 |
| ALIFLGYMLRRRYWIYRLLS | 0.07 ± 0.58 |
| ALIYPILILYGV | 1.52 ± 0.85 |
| ALMDKDLCLNMSGQKSLWFR | 0.073 ± 0.48 |

| Substance | amyloid nucleation score |
| --- | --- |
| ALMDTCSVSSARGHDPCNRP | -0.413 ± 0.78 |
| ALNGSNRIIACTIIWCVVW | 2.51 ± 0.18 |
| ALRNCQNMRPYKTPVRPTVA | 1.34 ± 0.71 |
| ALSEFIFGLWLSFLIPRYMW | 1.21 ± 0.56 |
| ALTVTCFLVPGSYIIHVGMK | -0.332 ± 0.37 |
| ALYSQGSSTV | -1.15 ± 1.1 |
| AMPADIILVVGLSCDDRREG | 0.724 ± 0.52 |
| AMQYYIHQLVVDLSGLM | 6.57 ± 0.077 |
| AMYHLGQSSLLYSRPFNSTK | -0.595 ± 1.6 |
| ANADDMLRFRGDF | 0.243 ± 0.44 |
| ANAELVYNRLFRSTNPLGCV | inactive |
| ANLCSCSTTMA | 0.236 ± 0.39 |
| ANLDQCYIMEWGSTESSKL | 0.302 ± 1 |
| ANLVWDYFQVSTSPMCPLVQ | -2.07 ± 2.4 |
| ANNNEYRFWTTSYW | 0.041 ± 1.4 |
| ANRNDCTQFTDSK | -0.41 ± 0.27 |
| APDRNDHDKLCCLCDNWSAL | 0.056 ± 1.4 |
| APEGLPMDAPGLGWVNRVII | -0.295 ± 0.8 |
| APHTTTLTRKSFDNGCGGFG | 0.001 ± 0.38 |
| APRYHAVFLLII | -0.505 ± 0.79 |
| APSYRATWRAVNCAILGPLY | -0.567 ± 0.61 |
| AQDLPLVTRNCKCMRRHLWV | -0.171 ± 0.42 |

| Substance | amyloid nucleation score |
| --- | --- |
| AQFFVLSSLW | -0.085 ± 0.93 |
| AQGVNSFCIEVFHCEGVMDP | -0.003 ± 0.38 |
| AQSPQVNSLWCGMNFTTFPG | 1.92 ± 0.2 |
| AQTPRLLKVG | -1.01 ± 1.8 |
| ARGTGGSKAAPNYLVYTGCR | 0.684 ± 0.48 |
| ARGYAGVRRLVGYR | 0.133 ± 0.56 |
| ARGYPLTYKYQVSRGSRLTL | 0.439 ± 0.4 |
| ARMASHRTCLNVYLRLCAYL | -0.343 ± 0.31 |
| ARSCVLNLVPGFSPSFGT | -0.426 ± 0.52 |
| ARWKKQWFYT | 0.796 ± 0.58 |
| ASAWGLGYEFPWSRSYSAKT | -0.209 ± 0.9 |
| ASFVSLVSAPESFNGFAVQN | -0.006 ± 0.48 |
| ASIYMLRFMDLT | -0.244 ± 0.71 |
| ASLAIGFSIKSHYVMCRVYP | 0.42 ± 0.35 |
| ASMPAFAT | 0.413 ± 0.72 |
| ASMWSWRYHMEAINSTKAEA | -0.745 ± 2.4 |
| ASNAARLLPDRISGSEAF | 0.591 ± 0.71 |
| ASRMFMSFLYYSMLLWLLNV | -1.66 ± 0.85 |
| ASRSCIVSRRASGPHVCCQV | 0.098 ± 0.91 |
